{"source": "patent WO2022154037A1", "about": "(dated 2022)", "binders": {"B1": {"name": "anti-pSer510-LRH1 monoclonal antibody clone 55 (FMU-P2-C2) (antibody, V domains shown)", "VH": "EVKLVESGGGLVQPGGSLRLSCAASGFTFADFYMSWIRQSPGKAPEWLSFIRNKAKSYTTEYNPSVKGRFTISRDDTQNVLYLQMNTLRAEDTAIYYCAKHERGGAGDYWGQGVMVTVSL", "VL": "DIQMTQSPASLSASPEEIVTITCQASQDIGNWLTWYQQKPGKSPQLLIYSATSLADGIPSRFSGSRSGTQYSLKISRLQVEDTGIYYCLQRYSNPLTFGSGTKLEIK", "notes": "Rat monoclonal antibody from a hybridoma (Wistar rat iliac lymph node cells fused with mouse myeloma SP2), detected with anti-rat IgG secondary antibodies; also called rat anti-pSer510-LRH1 monoclonal antibody clone 55; purified anti-pSer510-LRH1 monoclonal antibody"}}, "key": {"[1]": {"target": "T1, antigen peptide in which Ser510 is not phosphorylated (non-phosphorylated LRH1 peptide) (human)", "T1 construct": "also called non-pS510-LRH1 peptide; peptide containing a non-phosphorylated product of serine at position 510", "T1 peptide": "RLPEIRAISMQAEE", "experiment": "ELISA, concentration series of peptide, purified antibody"}, "[2]": {"target": "T2, mutant LRH1 (LRH1S510E; constitutive phosphorylated product) (human, UniProt O00482 1-541)", "T2 construct": "It is a nuclear protein, not on the cell surface; also called HEK293T:LRH1S510E", "T2 sequence (O00482 whole entry S510E)": "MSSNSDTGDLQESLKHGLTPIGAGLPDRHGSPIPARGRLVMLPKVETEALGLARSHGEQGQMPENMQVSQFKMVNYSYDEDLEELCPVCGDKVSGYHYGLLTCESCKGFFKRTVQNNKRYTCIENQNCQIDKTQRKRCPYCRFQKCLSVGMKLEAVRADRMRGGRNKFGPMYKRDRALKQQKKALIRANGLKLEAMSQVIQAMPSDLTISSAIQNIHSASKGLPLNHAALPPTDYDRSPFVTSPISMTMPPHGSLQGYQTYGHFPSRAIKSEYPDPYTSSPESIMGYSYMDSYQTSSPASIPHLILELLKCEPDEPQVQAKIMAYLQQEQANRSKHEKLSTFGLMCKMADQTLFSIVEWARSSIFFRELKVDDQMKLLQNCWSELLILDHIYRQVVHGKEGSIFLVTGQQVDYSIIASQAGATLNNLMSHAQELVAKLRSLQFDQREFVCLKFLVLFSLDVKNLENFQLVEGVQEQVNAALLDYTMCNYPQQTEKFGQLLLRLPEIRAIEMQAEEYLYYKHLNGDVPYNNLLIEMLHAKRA", "experiment": "immunohistochemical staining of HEK293T cell block sections expressing LRH1S510E"}}}
{"binder": "B1", "values": [{"measurement": "binding result", "setting": "[1]", "value": "no binding"}, {"measurement": "binding result", "setting": "[2]", "value": "binds"}]}
